For data set [1], the target named is microtubules (Cy5-labeled tubulin from porcine brain) (porcine (purified from porcine brain)) (UniProt P02550). Briefly: single-molecule fluorescence motility assay.
Data set [2] has the same target. Description: single-molecule fluorescence motility assay. The source holds these as a separate data set.
Data set [3] deals with the molecule itself. Description: single-molecule fluorescence and photobleaching.

Where two headings read alike, the source gives them in different places.

“full-length Xenopus laevis Eg5-GFP (from UniProt P28025 1-1067) (natural protein)”: the average duration of motile events (binding events) in data set [1] is 34 s; in data set [2], 16 s. With “Eg5-513-GFP (from UniProt P28025 1-513) (domain or fragment)”, the time bound to the microtubule in data set [1] was less than 2 s.

B1: Eg5-513-GFP (domain or fragment, X. laevis)
chain: MSSQNSFMASKKEDKGKNIQVVVRCRPFNQLERKASSHSVLECDSQRKEVYVRTGEVNDKLGKKTYTFDMVFGPAAKQIEVYRSVVCPILDEVIMGYNCTIFAYGQTGTGKTFTMEGERSSDEEFTWEQDPLAGIIPRTLHQIFEKLSENGTEFSVKVSLLEIYNEELFDLLSPSPDVGERLQMFDDPRNKRGVIIKGLEEISVHNKDEVYHILERGAARRKTASTLMNAYSSRSHSVFSVTIHMKETTVDGEELVKIGKLNLVDLAGSENIGRSGAVDKRAREAGNINQSLLTLGRVITALVERTPHIPYRESKLTRILQDSLGGRTKTSIIATVSPASINLEETVSTLDYANRAKSIMNKPEVNQKLTKKALIKEYTEEIERLKRELAAAREKNGVYLSSENYEQLQGKVLSQEEMITEYTEKITAMEEELKSISELFADNKKELEECTTILQCKEKELEETQNHLQESKEQLAQESFVVSAFETTEKKLHGTANKLLSTVRETTRDVSGLGSSGGGGSGGGGSGGGGS
For orientation: stoichiometry N means the number of molecules, sites or subunits per partner or assembly. Take B1: the “stoichiometry N” value in data set [3] amounted to 2.
